B1: SOSS complex subunit B1 (Homo sapiens), Q9BQ15 (parent)
chain: MTTETFVKDIKPGLKNLNLIFIVLETGRVTKTKDGHEVRTCKVADKTGSINISVWDDVGNLIQPGDIIRLTKGYASVFKGCLTLYTGRGGDLQKIGEFCMVYSEVPNFSEPNPEYSTQQAPNKAVQNDSNPSASQPTTGPSAASPASENQNGNGLSAPPGPGGGPHPPHTPSHPPSTRITRSQPNHTPAGPPGPSSNPVSNGKETRRSSKR

Variants of: B1
Conditions: with int3_human INTS3, Q68E01
Chain of int3_human INTS3, Q68E01 (Q68E01 whole entry): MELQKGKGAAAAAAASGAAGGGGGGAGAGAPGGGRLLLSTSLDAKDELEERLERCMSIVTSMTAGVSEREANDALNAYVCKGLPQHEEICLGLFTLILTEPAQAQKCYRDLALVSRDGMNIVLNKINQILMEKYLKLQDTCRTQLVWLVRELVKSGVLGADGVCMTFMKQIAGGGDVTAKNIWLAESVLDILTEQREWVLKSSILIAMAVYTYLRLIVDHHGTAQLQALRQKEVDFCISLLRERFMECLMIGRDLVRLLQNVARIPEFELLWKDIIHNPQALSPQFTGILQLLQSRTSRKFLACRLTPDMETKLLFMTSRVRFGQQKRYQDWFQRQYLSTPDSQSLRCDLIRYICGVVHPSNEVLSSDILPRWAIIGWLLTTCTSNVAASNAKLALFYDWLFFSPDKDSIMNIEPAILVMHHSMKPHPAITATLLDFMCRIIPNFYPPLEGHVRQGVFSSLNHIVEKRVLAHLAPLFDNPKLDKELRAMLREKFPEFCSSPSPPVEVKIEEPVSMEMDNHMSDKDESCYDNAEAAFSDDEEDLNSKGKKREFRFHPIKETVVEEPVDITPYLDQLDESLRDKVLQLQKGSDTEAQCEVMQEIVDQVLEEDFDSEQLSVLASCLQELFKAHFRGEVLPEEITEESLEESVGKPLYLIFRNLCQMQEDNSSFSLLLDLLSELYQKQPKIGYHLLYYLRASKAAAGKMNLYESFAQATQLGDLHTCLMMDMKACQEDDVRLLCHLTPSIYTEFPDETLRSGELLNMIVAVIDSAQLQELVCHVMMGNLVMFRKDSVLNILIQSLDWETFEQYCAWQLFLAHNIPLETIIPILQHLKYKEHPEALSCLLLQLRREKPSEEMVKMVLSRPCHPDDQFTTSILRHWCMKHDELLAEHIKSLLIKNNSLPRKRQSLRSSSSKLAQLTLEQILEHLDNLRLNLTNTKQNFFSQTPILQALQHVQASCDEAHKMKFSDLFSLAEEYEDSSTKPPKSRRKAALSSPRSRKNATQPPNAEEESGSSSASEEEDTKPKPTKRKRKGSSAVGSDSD

| Variant | effect of a mutation on the interaction |
| --- | --- |
| F98A | disrupting interaction strength |

Reference: IntAct's records for PubMed 28506294
